Kd data for two substances are collected here from US20140315253A1.

The target in this test is type I collagen (collagen membrane or collagen gel). Description: modified ELISA on type I collagen membrane (6.0 mg), Kd calculated by Matsushita's method.

For orientation: Kd means a measure of binding affinity in units of concentration. As to “CBD-NGF, histidine-affinity tagged fusion protein comprising the collagen binding domain and beta-NGF mature peptide”, the Kd was 510 nM.

As for “NAT-NGF, beta-NGF mature peptide with the histidine-affinity tag (ligand)”, the Kd is 1500 nM.
